Here are results for 24 molecules from patent US20250333467A1 (TECTONIC OPERATING, published 2025).

B1: SEQ ID NO: 317 (Fc fusion)
chain: DKTHTCPPCPAPEAAGGPSVFLFPPKPKDTLMISRTPEVTCVVVDVSHEDPEVKFNWYVDGVEVHNAKTKPREEQYNSTYRVVSVLTVLHQDWLNGKEYKCKVSNKALAAPIEKTISKAKGQPREPQVYTLPPSRDELTKNQVSLTCLVKGFYPSDIAVEWESNGQPENNYKTTPPVLDSDGSFFLYSKLTVDKSRWQQGNVFSCSVLHEALHSHYTQKSLSLSPGGGSDSWQEEVIKLCGRELVRAQIAICGKSTGGGEGGGEGGGEGRQLYSALANKCCHVGCTKRSLAQFC
B2: SEQ ID NO: 313 (Fc fusion)
chain: DKTHTCPPCPAPEAAGGPSVFLFPPKPKDTLMISRTPEVTCVVVDVSHEDPEVKFNWYVDGVEVHNAKTKPREEQYNSTYRVVSVLTVLHQDWLNGKEYKCKVSNKALAAPIEKTISKAKGQPREPQVYTLPPSRDELTKNQVSLTCLVKGFYPSDIAVEWESNGQPENNYKTTPPVLDSDGSFFLYSKLTVDKSRWQQGNVFSCSVLHEALHSHYTQKSLSLSPGKGGSDSWQEEVIKLCGRELVRAQIAICGKSTGGGEGGGEGGGEGRQLYSALANKCCHVGCTKRSLAQFC
B3: SEQ ID NO: 86 (Fc fusion)
chain: DKTHTCPPCPAPEAAGGPSVFLFPPKPKDTLMISRTPEVTCVVVDVSHEDPEVKFNWYVDGVEVHNAKTKPREEQYNSTYRVVSVLTVLHQDWLNGKEYKCKVSNKALAAPIEKTISKAKGQPREPQVYTLPPSRDELTKNQVSLTCLVKGFYPSDIAVEWESNGQPENNYKTTPPVLDSDGSFFLYSKLTVDKSRWQQGNVFSCSVLHEALHSHYTQKSLSLSPGKGGSDSWQEEVIKLCGRELVRAQIAICGKSTASDAAGADADAGARQLYSALANKCCHVGCTKRSLAQFC
B4: SEQ ID NO: 93 (Fc fusion)
chain: B3 chain with K227E
B5: SEQ ID NO: 111 (Fc fusion)
chain: B3 chain with K227E, D265Q, D267Q, R289Q
B6: SEQ ID NO: 91 (Fc fusion)
chain: B3 chain with K227E, D267N
B7: SEQ ID NO: 104 (Fc fusion)
chain: B3 chain with K227E, K255Q, D265Q, D267Q
B8: SEQ ID NO: 118 (Fc fusion)
chain: B3 chain with K227E, K255Q, D265Q, D267Q, R289Q
B9: SEQ ID NO: 95 (Fc fusion)
chain: B3 chain with K227E, D265Q
B10: SEQ ID NO: 98 (Fc fusion)
chain: B3 chain with K227E, K255Q, D267N
B11: SEQ ID NO: 130 (Fc fusion)
chain: B2 chain with K227E, W233Y, G260E, E261G, G262S, G267E, E269G, H283K
B12: SEQ ID NO: 131 (Fc fusion)
chain: B2 chain with K227E, W233Y, G260E, E261G, G262S, G267S, E269G, H283Y
B13: SEQ ID NO: 129 (Fc fusion)
chain: B2 chain with K227E, W233Y, G260E, E261G, G262S, G267E, E269G, H283Y
B14: SEQ ID NO: 132 (Fc fusion)
chain: B2 chain with K227E, W233Y, G260E, E261G, G262S, G267S, E269G, H283K
B15: SEQ ID NO: 122 (Fc fusion)
chain: B3 chain with W233I, D265E, D267E
B16: SEQ ID NO: 127 (Fc fusion)
chain: B3 chain with K227E, W233Y, D265E, D267E, H283Y
B17: SEQ ID NO: 119 (Fc fusion)
chain: B3 chain with W233Y, D265E, D267E
B18: SEQ ID NO: 120 (Fc fusion)
chain: B3 chain with W233F, D265E, D267E
B19: SEQ ID NO: 123 (Fc fusion)
chain: B3 chain with D265E, D267E, H283Y
B20: SEQ ID NO: 125 (Fc fusion)
chain: B3 chain with D265E, D267E, H283Q
B21: SEQ ID NO: 128 (Fc fusion)
chain: B3 chain with K227E, W233Y, D265E, D267E, H283K
B22: SEQ ID NO: 121 (Fc fusion)
chain: B3 chain with W233L, D265E, D267E
B23: SEQ ID NO: 126 (Fc fusion)
chain: B3 chain with D265E, D267E, H283K
B24: SEQ ID NO: 124 (Fc fusion)
chain: B3 chain with D265E, D267E, H283L

Residue numbers refer to the chain shown, from its start.

For one experiment, the target named is T1, human RXFP1 (human, UniProt Q9HBX9 1-757).
T1 sequence (looked up): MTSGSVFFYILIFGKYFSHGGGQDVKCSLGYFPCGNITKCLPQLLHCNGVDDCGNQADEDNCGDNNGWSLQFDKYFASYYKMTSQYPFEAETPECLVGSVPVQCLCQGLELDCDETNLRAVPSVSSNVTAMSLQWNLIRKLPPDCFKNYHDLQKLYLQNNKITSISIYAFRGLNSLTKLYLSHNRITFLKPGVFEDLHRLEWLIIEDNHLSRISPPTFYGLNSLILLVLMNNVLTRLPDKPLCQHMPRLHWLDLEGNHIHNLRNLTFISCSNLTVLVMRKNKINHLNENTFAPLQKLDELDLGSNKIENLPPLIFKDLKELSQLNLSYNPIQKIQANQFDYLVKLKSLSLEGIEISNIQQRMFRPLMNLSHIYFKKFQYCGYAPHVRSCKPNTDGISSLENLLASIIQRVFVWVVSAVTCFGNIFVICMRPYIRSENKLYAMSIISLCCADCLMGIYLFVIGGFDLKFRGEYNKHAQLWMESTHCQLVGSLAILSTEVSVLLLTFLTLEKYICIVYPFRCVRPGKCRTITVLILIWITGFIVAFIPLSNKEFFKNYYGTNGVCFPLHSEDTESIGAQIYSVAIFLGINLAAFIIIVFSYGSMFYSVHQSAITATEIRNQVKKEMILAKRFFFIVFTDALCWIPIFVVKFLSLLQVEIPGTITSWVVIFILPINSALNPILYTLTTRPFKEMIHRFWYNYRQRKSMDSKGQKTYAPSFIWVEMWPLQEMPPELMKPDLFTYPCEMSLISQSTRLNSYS
In words: cell-based or functional assay.
B1: the “Potency (cAMP, transient hRXFP1 in HEK293)” value (“Potency” for short) was found to be 8 nM.

With B2, the “Potency” value worked out at 4.2 nM.

As to B3, the “Potency” value amounted to 4 nM.

Consider B4, for which the “Potency” value turned out to be 11.1 nM.

On to B5, for which the “Potency” value was 3.5 nM.

Take B6: the “Potency” value is 3.9 nM.

As for B7, the “Potency” value turned out to be 2.8 nM.

In the case of B8, the “Potency” value was determined as 10.1 nM.

Take B9: the “Potency” value worked out at 6.8 nM.

Turning to B10, the “Potency” value was 8.8 nM.

The next experiment addresses T1, human RXFP1. Kind of experiment: cell-based or functional assay. The source holds these as a separate data set.
As to B11, the “Potency” value was 24.6 nM.

Take B12: the “Potency” value turned out to be 16.4 nM.

Take B13: the “Potency” value came to 42.4 nM.

With B14, the “Potency” value turned out to be 11.2 nM.

With B15, the “Potency” value is 6.5 nM.

As to B16, the “Potency” value was 32 nM.

Turning to B17, the “Potency” value turned out to be 4.9 nM.

B18: the “Potency” value is 4.8 nM.

Consider B19, for which the “Potency” value was determined as 11.7 nM.

Take B20: the “Potency” value is 11.1 nM.

For the molecule B21, the “Potency” value was 23.2 nM.

Consider B22, for which the “Potency” value was found to be 5.5 nM.

Take B23: the “Potency” value amounted to 8.3 nM.

Take B24: the “Potency” value turned out to be 20.8 nM.

Another experiment deals with T1, human RXFP1. In words: cell-based or functional assay. The source holds these as a separate data set.
As for B1, the “THP1 (endogenous RXFP1) cAMP EC50” value is 63 nM and the “Transient HEK293 hRXFP1 cAMP EC50” value was 38.2 nM.

As to B2, the “THP1 (endogenous RXFP1) cAMP EC50” value was 49 nM and the “Transient HEK293 hRXFP1 cAMP EC50” value is 10 nM.

Regarding B3, the “THP1 (endogenous RXFP1) cAMP EC50” value is 30 nM and the “Transient HEK293 hRXFP1 cAMP EC50” value was 7.46 nM.

As to B4, the “THP1 (endogenous RXFP1) cAMP EC50” value is 90 nM and the “Transient HEK293 hRXFP1 cAMP EC50” value turned out to be 19.1 nM.

B5: the “THP1 (endogenous RXFP1) cAMP EC50” value was determined as 80 nM and the “Transient HEK293 hRXFP1 cAMP EC50” value is 5.94 nM.

On to B6, for which the “THP1 (endogenous RXFP1) cAMP EC50” value came out at 30 nM and the “Transient HEK293 hRXFP1 cAMP EC50” value stood at 10.2 nM.

On to B7, for which the “THP1 (endogenous RXFP1) cAMP EC50” value came to 11 nM and the “Transient HEK293 hRXFP1 cAMP EC50” value worked out at 6.17 nM.

Take B8: the “THP1 (endogenous RXFP1) cAMP EC50” value is 200 nM and the “Transient HEK293 hRXFP1 cAMP EC50” value stood at 25 nM.

As for B9, the “THP1 (endogenous RXFP1) cAMP EC50” value stood at 26 nM and the “Transient HEK293 hRXFP1 cAMP EC50” value was determined as 10.9 nM.

Turning to B10, the “THP1 (endogenous RXFP1) cAMP EC50” value worked out at 100 nM and the “Transient HEK293 hRXFP1 cAMP EC50” value stood at 21.5 nM.

In a further experiment the target is T2, rat RXFP1 (rat, UniProt Q6R6I6 1-758).
T2 sequence (looked up): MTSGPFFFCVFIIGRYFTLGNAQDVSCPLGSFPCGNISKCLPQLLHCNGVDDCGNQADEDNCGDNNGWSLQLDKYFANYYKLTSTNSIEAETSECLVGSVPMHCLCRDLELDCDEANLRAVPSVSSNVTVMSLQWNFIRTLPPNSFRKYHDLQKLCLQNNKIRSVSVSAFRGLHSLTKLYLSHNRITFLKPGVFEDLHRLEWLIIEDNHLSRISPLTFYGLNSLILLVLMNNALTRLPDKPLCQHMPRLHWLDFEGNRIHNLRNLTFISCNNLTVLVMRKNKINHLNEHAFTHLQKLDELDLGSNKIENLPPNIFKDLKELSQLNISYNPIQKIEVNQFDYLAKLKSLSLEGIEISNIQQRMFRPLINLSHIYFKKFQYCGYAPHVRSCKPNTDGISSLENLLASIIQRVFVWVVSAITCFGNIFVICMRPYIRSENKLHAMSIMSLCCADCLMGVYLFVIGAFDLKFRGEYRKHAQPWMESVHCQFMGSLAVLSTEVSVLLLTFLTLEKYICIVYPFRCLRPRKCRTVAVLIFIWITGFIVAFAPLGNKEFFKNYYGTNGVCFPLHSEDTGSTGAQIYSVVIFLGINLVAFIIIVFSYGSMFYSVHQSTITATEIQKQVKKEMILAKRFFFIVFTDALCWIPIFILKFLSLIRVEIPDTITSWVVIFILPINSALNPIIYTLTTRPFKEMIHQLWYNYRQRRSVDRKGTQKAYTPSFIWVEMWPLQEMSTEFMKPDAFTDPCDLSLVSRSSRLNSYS
Kind of experiment: cell-based or functional assay.
Turning to B1, the “Transient HEK293 rRXFP1 cAMP EC50” value amounted to 31.2 nM.

Regarding B2, the “Transient HEK293 rRXFP1 cAMP EC50” value turned out to be 15.1 nM.

For the molecule B3, the “Transient HEK293 rRXFP1 cAMP EC50” value turned out to be 24.5 nM.

As to B4, the “Transient HEK293 rRXFP1 cAMP EC50” value worked out at 21.3 nM.

Consider B5, for which the “Transient HEK293 rRXFP1 cAMP EC50” value worked out at 6.74 nM.

For the molecule B6, the “Transient HEK293 rRXFP1 cAMP EC50” value came to 12.4 nM.

B7: the “Transient HEK293 rRXFP1 cAMP EC50” value worked out at 6.74 nM.

For B8, the “Transient HEK293 rRXFP1 cAMP EC50” value is 20.3 nM.

For B9, the “Transient HEK293 rRXFP1 cAMP EC50” value came to 13.5 nM.

Take B10: the “Transient HEK293 rRXFP1 cAMP EC50” value came out at 29.1 nM.
